Assay results reported in US20140072613A1, “Compositions and Methods for Treating Cutaneous Scarring” (priority 2012, published 2014).

What was measured:
Test in all cases: biochemical
Type in all cases: biochemical
266 human kinases [1] = molecular target: 266 human kinases (Homo sapiens, UniProt P11362); conditions: FGFR1(h); 100 μM
Method in brief: (§1)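 A filter-capture radiometric assay: phosphorylated cationic substrate binds an anionic membrane and is scintillation-counted, with values referenced to full-activity control.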

266 human kinases [2] = molecular target: T1, 266 human kinases (Homo sapiens, UniProt Q02156); conditions: PKCε(h); 100 μM
T1 sequence (Q02156 1-737): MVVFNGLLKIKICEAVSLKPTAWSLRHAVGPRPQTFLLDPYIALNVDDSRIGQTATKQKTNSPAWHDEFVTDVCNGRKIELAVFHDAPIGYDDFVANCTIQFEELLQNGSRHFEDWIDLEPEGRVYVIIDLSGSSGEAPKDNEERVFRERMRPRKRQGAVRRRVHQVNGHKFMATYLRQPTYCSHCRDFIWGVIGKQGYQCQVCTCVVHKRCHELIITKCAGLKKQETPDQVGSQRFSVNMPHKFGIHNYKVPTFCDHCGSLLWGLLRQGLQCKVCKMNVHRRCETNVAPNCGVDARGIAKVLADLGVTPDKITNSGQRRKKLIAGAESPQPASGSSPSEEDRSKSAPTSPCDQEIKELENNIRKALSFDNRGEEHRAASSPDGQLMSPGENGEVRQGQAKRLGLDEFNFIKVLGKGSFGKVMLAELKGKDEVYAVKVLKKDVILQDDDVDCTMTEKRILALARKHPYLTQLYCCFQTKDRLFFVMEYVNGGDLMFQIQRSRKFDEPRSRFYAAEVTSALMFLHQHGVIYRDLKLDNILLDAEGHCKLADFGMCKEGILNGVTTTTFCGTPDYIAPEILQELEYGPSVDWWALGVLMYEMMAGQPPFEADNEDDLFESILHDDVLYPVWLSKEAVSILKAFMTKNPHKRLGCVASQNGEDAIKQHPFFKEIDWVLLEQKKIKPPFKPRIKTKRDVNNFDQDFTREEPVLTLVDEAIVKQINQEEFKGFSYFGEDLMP
Method in brief: as §1

266 human kinases [3] = molecular target: 266 human kinases (Homo sapiens, UniProt Q13555); conditions: CaMKIIγ(h); 100 μM
266 human kinases (Homo sapiens, UniProt Q13555), sequence (Q13555 whole entry): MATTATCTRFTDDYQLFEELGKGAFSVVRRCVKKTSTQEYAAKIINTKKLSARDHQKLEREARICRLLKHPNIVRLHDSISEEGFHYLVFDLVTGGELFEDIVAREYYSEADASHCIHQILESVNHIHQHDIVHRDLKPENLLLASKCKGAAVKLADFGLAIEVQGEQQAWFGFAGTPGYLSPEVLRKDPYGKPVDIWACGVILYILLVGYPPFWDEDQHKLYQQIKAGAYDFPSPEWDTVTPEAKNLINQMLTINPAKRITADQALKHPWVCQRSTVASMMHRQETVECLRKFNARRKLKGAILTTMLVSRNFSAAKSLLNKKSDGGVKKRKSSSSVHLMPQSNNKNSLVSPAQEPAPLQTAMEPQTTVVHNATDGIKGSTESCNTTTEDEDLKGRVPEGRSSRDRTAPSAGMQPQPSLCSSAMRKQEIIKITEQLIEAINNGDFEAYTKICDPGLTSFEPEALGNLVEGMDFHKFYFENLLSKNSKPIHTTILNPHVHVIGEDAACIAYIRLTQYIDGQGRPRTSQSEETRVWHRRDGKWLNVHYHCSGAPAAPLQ
Method in brief: as §1

266 human kinases [4] = molecular target: 266 human kinases (Homo sapiens, UniProt Q13882); conditions: BRK(h); 100 μM
266 human kinases (Homo sapiens, UniProt Q13882), sequence (Q13882 whole entry): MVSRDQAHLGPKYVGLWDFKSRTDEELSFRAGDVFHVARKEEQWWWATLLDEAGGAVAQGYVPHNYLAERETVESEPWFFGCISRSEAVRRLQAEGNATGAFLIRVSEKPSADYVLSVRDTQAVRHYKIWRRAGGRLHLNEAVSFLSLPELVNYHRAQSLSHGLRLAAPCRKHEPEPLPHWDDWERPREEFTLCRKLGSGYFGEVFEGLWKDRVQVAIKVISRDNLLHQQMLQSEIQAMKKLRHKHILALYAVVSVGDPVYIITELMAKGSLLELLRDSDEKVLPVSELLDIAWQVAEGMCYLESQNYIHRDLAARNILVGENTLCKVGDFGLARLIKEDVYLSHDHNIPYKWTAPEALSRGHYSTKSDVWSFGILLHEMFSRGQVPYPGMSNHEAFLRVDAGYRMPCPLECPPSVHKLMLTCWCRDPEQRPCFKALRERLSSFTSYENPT
Method in brief: as §1

266 human kinases [5] = molecular target: T2, 266 human kinases (Homo sapiens, UniProt Q15139); conditions: PKCμ(h); 100 μM
T2 sequence (Q15139 1-912): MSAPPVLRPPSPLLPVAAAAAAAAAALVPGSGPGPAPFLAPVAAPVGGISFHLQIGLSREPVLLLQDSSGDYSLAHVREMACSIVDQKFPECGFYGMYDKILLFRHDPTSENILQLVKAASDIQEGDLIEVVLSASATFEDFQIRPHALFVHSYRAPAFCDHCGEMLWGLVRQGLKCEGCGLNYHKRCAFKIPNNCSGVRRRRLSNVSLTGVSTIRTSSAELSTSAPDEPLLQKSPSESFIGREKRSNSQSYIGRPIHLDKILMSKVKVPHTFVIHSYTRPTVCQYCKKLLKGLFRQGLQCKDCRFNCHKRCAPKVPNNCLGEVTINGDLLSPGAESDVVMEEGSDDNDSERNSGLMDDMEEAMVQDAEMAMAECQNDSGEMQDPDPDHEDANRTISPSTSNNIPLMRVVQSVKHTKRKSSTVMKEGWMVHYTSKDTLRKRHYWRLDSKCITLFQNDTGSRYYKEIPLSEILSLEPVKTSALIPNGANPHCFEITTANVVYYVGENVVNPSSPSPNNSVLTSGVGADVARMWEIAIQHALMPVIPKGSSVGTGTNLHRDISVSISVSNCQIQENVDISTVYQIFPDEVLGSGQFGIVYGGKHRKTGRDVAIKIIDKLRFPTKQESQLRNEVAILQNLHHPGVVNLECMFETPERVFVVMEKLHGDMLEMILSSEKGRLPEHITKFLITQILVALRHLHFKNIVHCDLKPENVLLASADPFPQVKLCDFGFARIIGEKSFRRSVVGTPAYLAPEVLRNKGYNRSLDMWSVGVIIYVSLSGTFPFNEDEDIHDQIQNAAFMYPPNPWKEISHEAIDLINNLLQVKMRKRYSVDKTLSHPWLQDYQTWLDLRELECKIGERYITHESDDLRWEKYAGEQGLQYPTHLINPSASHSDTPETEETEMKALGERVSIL
Method in brief: as §1

266 human kinases [6] = molecular target: 266 human kinases (Homo sapiens, UniProt Q15759); conditions: SAPK2b(h); 100 μM
266 human kinases (Homo sapiens, UniProt Q15759), sequence (Q15759 whole entry): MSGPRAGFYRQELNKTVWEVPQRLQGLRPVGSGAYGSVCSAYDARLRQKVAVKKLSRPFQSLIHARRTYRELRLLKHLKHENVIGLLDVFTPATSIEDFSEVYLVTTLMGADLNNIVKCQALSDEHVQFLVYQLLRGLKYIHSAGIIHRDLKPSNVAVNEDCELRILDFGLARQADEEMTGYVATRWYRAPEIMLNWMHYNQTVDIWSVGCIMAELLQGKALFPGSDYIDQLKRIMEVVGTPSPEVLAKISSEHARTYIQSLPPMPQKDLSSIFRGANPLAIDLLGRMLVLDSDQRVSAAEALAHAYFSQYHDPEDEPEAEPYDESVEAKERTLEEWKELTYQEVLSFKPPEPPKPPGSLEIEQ
Method in brief: as §1

266 human kinases [7] = molecular target: T3, 266 human kinases (Homo sapiens, UniProt Q9NWZ3); conditions: IRAK4(h); 100 μM
T3 sequence (Q9NWZ3 1-460): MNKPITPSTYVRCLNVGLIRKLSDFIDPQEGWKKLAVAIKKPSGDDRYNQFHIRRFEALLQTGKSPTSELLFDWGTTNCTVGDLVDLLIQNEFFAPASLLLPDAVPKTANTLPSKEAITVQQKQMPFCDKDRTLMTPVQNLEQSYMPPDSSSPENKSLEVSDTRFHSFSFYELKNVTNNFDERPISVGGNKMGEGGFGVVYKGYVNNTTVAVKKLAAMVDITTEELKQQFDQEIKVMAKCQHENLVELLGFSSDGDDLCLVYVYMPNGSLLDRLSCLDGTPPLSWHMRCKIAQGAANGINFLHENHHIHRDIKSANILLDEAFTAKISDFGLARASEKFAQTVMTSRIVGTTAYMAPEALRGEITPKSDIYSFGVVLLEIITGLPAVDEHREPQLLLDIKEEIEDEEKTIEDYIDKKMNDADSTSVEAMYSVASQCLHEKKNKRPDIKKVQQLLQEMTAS
Method in brief: as §1

266 human kinases (Homo sapiens, UniProt P11362), sequence (P11362 22-822): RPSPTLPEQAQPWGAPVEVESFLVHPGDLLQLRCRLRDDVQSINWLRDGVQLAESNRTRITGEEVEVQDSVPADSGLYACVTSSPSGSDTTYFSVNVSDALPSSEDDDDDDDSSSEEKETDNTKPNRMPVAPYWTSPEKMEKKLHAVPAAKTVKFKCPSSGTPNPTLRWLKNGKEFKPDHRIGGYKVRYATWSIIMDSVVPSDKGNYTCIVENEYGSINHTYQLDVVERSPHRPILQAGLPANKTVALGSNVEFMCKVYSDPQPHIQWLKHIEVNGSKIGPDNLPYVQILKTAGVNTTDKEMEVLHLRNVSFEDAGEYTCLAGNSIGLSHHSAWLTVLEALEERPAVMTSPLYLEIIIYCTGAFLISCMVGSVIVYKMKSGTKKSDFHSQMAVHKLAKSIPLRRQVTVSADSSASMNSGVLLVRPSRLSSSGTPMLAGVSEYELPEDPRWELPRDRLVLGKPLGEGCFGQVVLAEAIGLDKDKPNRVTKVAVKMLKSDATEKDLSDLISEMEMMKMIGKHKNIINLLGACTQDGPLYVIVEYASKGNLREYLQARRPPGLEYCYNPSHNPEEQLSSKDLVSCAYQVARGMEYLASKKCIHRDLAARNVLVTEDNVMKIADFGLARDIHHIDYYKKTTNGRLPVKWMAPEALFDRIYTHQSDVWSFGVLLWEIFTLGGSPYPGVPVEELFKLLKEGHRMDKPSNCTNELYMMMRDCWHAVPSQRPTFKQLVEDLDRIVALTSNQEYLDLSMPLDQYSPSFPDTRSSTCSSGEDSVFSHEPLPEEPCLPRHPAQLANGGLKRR

Sequence	% activity (266 human kinases [1]) [%]	% activity (266 human kinases [2]) [%]	% activity (266 human kinases [3]) [%]	% activity (266 human kinases [4]) [%]	% activity (266 human kinases [5]) [%]	% activity (266 human kinases [6]) [%]	% activity (266 human kinases [7]) [%]
HRRIKAWLKKIKALARQLGVAA (mammal) [MMI-0500]	18	23	3	41	10	42	3
YARAAARQARAKALNRQLGVA (mammal) [MMI-0200]	97	98	94	127	73	95	110
